Assay results taken from the supplement of paper PMC9876800.

Tested on: peptide library, one residue held at a place counted from the S/T acceptor
Assay: relative phosphorylation of the sub-library (ratio to the mean residue at this position); higher = residue favoured
Settings: human
In short: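 Each biotinylated degenerate peptide sub-library fixed one residue at one position around a central Ser/Thr and was incubated with a purified recombinant kinase, a human or orthologue construct, in 384-well plates. The 90 min reactions, under kinase-specific conditions, contained 50 μM peptide and 50 μM ATP spiked with γ-32P-ATP. Phosphorylation was read by phosphorimaging spots on streptavidin membranes and quantifying them by densitometry. Relative sub-library phosphorylation expresses each value as a ratio to the mean residue at that position.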

Chain of SMG1, construct: Full length (Q96Q15 whole entry, looked up): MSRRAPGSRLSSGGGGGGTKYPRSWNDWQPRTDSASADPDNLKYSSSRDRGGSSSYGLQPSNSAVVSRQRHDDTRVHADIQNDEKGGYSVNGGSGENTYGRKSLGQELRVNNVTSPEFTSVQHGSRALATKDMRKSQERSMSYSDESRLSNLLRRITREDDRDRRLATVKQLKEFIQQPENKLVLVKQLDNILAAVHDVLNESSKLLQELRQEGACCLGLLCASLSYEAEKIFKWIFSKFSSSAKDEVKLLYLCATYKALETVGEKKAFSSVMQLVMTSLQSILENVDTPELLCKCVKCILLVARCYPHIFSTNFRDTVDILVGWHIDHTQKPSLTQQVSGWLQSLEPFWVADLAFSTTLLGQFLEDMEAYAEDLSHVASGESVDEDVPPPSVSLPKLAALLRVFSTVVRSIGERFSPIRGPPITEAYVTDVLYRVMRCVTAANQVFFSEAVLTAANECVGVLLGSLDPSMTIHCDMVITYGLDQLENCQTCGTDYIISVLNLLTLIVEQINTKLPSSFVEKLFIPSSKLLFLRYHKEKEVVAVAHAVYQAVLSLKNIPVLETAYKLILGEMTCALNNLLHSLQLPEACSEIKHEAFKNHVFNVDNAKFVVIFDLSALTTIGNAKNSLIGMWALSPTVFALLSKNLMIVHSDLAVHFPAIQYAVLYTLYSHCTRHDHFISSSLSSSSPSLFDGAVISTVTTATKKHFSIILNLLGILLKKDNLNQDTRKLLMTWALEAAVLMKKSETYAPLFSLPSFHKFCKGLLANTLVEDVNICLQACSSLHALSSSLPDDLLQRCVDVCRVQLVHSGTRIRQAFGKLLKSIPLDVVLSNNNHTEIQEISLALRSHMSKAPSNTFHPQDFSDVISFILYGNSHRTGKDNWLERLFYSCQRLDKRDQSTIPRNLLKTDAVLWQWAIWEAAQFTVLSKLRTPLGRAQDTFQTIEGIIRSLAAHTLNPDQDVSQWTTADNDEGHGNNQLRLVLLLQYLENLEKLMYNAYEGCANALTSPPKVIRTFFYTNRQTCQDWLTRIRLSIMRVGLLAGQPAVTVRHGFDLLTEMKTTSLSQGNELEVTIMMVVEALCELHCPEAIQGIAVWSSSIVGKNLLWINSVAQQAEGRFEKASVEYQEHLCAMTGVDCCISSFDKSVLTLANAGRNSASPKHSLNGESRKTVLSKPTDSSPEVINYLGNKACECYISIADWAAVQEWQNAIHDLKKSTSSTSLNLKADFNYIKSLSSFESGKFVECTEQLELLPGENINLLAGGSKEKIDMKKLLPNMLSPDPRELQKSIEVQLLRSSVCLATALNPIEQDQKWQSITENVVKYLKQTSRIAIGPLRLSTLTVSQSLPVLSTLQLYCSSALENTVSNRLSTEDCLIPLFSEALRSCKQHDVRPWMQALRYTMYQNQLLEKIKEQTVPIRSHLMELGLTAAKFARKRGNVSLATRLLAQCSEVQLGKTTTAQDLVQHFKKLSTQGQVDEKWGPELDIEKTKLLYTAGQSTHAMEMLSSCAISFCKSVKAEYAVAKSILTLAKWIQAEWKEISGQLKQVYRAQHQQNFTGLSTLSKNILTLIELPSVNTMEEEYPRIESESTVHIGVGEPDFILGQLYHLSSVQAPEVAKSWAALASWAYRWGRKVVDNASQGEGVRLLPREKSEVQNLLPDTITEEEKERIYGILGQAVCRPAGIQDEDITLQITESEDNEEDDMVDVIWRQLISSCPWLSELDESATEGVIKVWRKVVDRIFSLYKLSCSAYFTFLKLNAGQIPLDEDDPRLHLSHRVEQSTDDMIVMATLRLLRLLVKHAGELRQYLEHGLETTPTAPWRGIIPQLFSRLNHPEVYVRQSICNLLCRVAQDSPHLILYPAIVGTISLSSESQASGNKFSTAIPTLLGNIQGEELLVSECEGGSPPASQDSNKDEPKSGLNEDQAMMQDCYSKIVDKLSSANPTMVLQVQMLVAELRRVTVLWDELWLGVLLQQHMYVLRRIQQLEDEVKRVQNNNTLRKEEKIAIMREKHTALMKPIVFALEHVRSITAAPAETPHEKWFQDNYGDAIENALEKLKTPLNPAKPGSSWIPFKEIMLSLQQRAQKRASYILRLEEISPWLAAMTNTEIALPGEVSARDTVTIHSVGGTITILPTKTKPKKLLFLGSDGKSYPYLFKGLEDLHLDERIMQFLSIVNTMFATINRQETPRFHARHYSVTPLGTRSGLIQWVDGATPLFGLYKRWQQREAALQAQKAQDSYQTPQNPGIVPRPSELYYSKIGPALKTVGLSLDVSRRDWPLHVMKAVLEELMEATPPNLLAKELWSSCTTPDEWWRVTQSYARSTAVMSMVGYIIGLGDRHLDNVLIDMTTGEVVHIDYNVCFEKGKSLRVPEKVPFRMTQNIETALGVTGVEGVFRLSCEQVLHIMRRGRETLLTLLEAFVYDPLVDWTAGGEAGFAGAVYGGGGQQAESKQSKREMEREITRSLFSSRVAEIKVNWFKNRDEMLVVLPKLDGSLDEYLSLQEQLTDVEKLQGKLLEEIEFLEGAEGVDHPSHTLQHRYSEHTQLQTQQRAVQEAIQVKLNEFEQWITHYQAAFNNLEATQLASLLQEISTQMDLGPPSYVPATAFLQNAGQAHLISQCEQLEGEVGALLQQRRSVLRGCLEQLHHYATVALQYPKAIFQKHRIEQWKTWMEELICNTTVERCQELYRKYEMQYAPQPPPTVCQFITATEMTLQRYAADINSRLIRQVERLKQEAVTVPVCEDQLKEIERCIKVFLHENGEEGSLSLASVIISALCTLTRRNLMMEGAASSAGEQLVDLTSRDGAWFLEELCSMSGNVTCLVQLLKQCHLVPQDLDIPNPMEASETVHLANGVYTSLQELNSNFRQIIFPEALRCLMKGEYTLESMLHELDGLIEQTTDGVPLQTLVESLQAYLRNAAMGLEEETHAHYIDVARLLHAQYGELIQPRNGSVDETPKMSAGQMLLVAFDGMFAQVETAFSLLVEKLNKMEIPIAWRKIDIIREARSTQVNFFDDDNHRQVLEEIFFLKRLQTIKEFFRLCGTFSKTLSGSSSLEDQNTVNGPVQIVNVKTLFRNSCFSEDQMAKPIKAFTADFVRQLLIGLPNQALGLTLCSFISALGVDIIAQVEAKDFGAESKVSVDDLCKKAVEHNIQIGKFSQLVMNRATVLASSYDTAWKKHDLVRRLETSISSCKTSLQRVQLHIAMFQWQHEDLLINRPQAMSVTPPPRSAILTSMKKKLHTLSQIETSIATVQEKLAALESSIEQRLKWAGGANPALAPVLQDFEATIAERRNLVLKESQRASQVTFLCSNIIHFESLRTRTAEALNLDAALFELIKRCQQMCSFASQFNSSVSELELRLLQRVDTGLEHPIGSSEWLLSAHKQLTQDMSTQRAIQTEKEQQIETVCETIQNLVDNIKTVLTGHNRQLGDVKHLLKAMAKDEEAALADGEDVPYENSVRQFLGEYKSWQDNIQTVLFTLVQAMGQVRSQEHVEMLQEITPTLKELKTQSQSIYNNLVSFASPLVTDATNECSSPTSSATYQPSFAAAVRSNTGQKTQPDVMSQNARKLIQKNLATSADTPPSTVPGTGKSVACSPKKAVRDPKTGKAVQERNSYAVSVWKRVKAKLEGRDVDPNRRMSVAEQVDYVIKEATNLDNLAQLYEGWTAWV
Chain of PLK1, construct: Full length (P53350 whole entry, looked up): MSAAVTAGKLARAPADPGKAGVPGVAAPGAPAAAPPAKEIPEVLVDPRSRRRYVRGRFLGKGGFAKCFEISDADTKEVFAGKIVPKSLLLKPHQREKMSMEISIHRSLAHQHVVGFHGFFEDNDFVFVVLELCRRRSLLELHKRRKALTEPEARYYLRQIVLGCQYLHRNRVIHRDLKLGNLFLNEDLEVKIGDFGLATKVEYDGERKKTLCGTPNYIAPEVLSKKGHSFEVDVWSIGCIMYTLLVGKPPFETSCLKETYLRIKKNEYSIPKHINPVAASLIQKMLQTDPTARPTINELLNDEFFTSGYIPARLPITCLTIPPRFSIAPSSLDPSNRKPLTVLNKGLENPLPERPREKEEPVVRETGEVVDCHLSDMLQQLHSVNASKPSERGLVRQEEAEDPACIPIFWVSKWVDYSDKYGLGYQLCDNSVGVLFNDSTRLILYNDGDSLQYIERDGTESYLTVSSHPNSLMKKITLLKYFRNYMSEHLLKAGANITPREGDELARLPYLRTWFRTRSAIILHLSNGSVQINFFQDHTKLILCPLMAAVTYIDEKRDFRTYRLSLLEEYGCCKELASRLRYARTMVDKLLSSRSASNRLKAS
Chain of GSK3A, construct: Full length (P49840 whole entry, looked up): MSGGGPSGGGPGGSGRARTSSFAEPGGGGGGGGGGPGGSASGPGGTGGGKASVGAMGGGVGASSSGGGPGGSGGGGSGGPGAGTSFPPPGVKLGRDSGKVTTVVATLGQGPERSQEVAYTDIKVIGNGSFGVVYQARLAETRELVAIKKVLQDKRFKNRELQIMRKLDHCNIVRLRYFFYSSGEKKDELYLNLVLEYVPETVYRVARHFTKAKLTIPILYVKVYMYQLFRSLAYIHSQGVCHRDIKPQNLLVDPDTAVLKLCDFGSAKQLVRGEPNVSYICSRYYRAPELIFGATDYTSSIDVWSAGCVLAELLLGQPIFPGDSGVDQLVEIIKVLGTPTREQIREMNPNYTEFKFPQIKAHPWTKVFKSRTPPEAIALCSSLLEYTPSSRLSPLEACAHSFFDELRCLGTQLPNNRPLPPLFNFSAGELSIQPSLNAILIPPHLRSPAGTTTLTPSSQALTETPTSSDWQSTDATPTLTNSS

SMG1, construct: Full length (from UniProt Q96Q15)
relative phosphorylation
Settings	at +1	at +2	at +3	at +4	at -1	at -2	at -3	at -4	at -5
A fixed	0.603	0.979	1.02	0.957	0.855	1.26	1.21	1.23	1.18
D fixed	0.453	1.12	1.33	0.91	0.348	0.521	0.669	0.674	0.649
E fixed	0.336	0.964	1.15	0.799	0.298	0.645	0.836	0.829	0.693
F fixed	0.533	0.966	1.12	1.28	1.35	1.25	1.44	1.3	1.39
G fixed	0.603	0.924	0.974	0.933	0.646	1.29	1.03	1.26	1.28
H fixed	0.522	0.991	0.858	1.06	0.939	1.04	0.972	1.02	1.07
I fixed	0.539	0.841	0.899	0.883	0.662	1.08	0.874	0.926	0.924
K fixed	0.581	0.711	0.62	0.779	0.725	0.698	0.604	0.614	0.67
L fixed	0.739	0.889	0.853	0.943	4.37	1.2	0.965	1.01	0.958
M fixed	0.55	1.03	1.07	1	2.27	1.26	1.33	1.08	1.03
N fixed	0.841	0.832	0.854	0.806	0.722	0.82	0.766	0.73	0.701
P fixed	0.567	1.39	0.996	1.12	0.558	0.807	0.817	0.855	1
Q fixed	7.53	1.13	0.832	0.867	0.822	0.877	0.83	0.766	0.729
R fixed	0.875	0.818	0.931	0.85	0.615	0.751	0.687	0.677	0.781
V fixed	0.567	0.946	0.913	0.881	0.474	0.996	0.912	0.93	0.964
W fixed	0.545	1.26	1.31	1.53	0.53	1.08	1.36	1.55	1.6
Y fixed	0.613	1.2	1.28	1.39	0.823	1.42	1.7	1.55	1.38
pThr fixed	0.386	1.04	1.82	1.03	0.365	0.661	0.999	1.11	1.1
pTyr fixed	0.416	0.704	1.06	1.41	0.539	1.27	1.71	1.65	1.47

GSK3A, construct: Full length (from UniProt P49840)
relative phosphorylation
Settings	at +1	at +2	at +3	at +4	at -1	at -2	at -3	at -4	at -5
A fixed	0.877	0.899	0.742	0.852	1.1	1.42	1.14	1.28	1.14
D fixed	0.815	1.25	1.32	1.25	1.15	1.14	1.36	1.39	1.36
E fixed	0.758	0.904	2.08	3.03	1.09	0.906	1.26	1.4	1.05
F fixed	0.673	0.931	0.889	0.752	0.598	0.686	0.525	0.686	0.903
G fixed	1.19	0.957	1.02	0.825	1.47	1.38	2.61	1.43	0.995
H fixed	0.771	1.04	0.935	0.772	0.927	0.741	0.668	0.915	0.983
I fixed	0.564	0.621	0.679	0.788	0.506	0.719	0.507	0.661	0.727
K fixed	1.18	1.33	0.933	1.14	1.3	1.02	0.824	1.06	1.16
L fixed	0.552	0.772	0.803	0.862	0.61	0.638	0.536	0.715	0.811
M fixed	0.607	0.883	0.812	0.864	0.691	0.662	0.604	0.747	0.739
N fixed	1.05	1.38	1	0.922	1.28	1.25	1.21	1.13	0.974
P fixed	3.8	0.825	0.899	0.728	1.5	2.02	1.65	1.42	1.31
Q fixed	0.858	1.35	1.2	1.03	1.35	1	1.09	0.894	0.887
R fixed	1.15	1.03	1.01	0.82	1.31	1.26	1.21	0.951	1.01
V fixed	0.634	0.703	0.718	0.695	0.616	0.777	0.605	0.721	0.963
W fixed	0.793	1.15	1.07	0.766	0.724	0.728	0.592	0.828	1.1
Y fixed	0.725	0.979	0.873	0.908	0.77	0.653	0.614	0.772	0.882
pThr fixed	0.876	0.928	3.67	62.8	0.866	1.11	1.06	1.82	1.07
pTyr fixed	1.15	1.09	2.41	3.12	1.52	1.34	1.37	1.45	1.69

PLK1, construct: Full length (from UniProt P53350)
relative phosphorylation
Settings	at +1	at +2	at +3	at +4	at -1	at -2	at -3	at -4	at -5
A fixed	0.622	0.73	0.85	0.951	0.748	0.452	0.934	1.12	1.16
D fixed	0.419	0.677	1.4	1.35	1.62	3.98	1.1	1.47	1.34
E fixed	0.461	0.705	1.87	1.48	1.46	2.28	1.23	1.31	1.1
F fixed	3.16	1.2	0.935	0.898	0.734	0.523	1.09	0.918	0.876
G fixed	0.524	0.439	0.881	1.01	0.451	0.679	1.23	1.09	1.21
H fixed	0.809	1.28	1.13	1.01	1.03	0.861	1.47	0.981	1.1
I fixed	1.28	1.37	1.05	0.769	0.976	0.402	0.66	0.816	0.757
K fixed	0.593	0.567	0.679	0.782	1.04	0.495	0.689	0.942	1.02
L fixed	1.36	1.7	1.02	0.795	0.964	0.53	1.33	0.979	0.807
M fixed	1.72	1.4	0.972	0.932	1.2	0.505	1.38	0.95	0.802
N fixed	0.606	1.14	0.82	1.1	1.24	2.86	1.08	1	1.22
P fixed	0.246	0.421	0.579	1.41	0.42	0.33	0.785	0.836	0.936
Q fixed	0.856	0.847	0.982	0.945	1.17	0.747	0.857	0.849	0.842
R fixed	0.908	0.959	0.76	0.813	1.4	0.641	0.998	0.961	1.02
V fixed	1.06	1.14	1.02	0.701	1.03	0.373	0.552	0.791	0.813
W fixed	0.971	1.05	1.05	1.09	0.563	0.636	0.898	1.16	1.06
Y fixed	1.4	1.38	1	0.958	0.952	0.709	0.718	0.832	0.927
pThr fixed	2.54	0.971	0.987	2.29	1.02	0.627	0.945	1.03	1.3
pTyr fixed	1.02	1.47	1.67	1.8	1.98	0.802	1.01	0.88	1.33

DYRK3, construct: Full length (from UniProt O43781)
relative phosphorylation
Settings	at +1	at +2	at +3	at +4	at -1	at -2	at -3	at -4	at -5
A fixed	0.74	0.843	0.891	0.767	1.14	1.24	0.635	0.856	0.845
D fixed	0.16	0.894	0.621	0.723	0.447	0.181	0.404	0.698	0.663
E fixed	0.175	0.758	0.613	0.713	0.554	0.207	0.368	0.747	0.656
F fixed	0.266	1.19	1.12	1.31	0.777	0.378	0.422	0.876	1.07
G fixed	0.732	0.679	1.47	1.07	1.13	0.719	1.59	1.01	0.936
H fixed	0.3	1.2	1.27	1.16	0.991	0.556	0.621	0.945	1.12
I fixed	0.513	1.33	0.817	0.973	0.709	0.643	0.418	0.905	1.05
K fixed	0.494	0.7	0.727	0.926	1.42	0.746	0.92	1.1	1.11
L fixed	0.329	1.41	1.23	0.916	0.882	0.651	0.444	0.887	0.892
M fixed	0.337	1.41	1.21	1.35	1.22	0.67	0.467	0.903	0.84
N fixed	0.289	0.883	0.777	0.919	0.783	0.555	0.473	0.71	0.809
P fixed	8.02	0.703	1.93	0.889	1.27	1.93	0.514	0.886	0.898
Q fixed	0.442	0.889	0.834	0.932	1	0.583	0.518	0.688	0.742
R fixed	2.71	1.05	1.09	1.13	2.12	6.5	7.91	3.23	2.49
V fixed	0.987	1.1	0.661	0.785	0.726	0.724	0.357	0.664	0.716
W fixed	0.257	0.91	0.887	1.38	0.64	0.386	0.473	0.964	0.942
Y fixed	0.242	1.04	0.858	1.06	1.18	0.336	0.473	0.928	1.21
pThr fixed	0.328	1.44	0.549	0.977	0.353	0.349	0.492	0.812	0.954
pTyr fixed	0.363	0.759	0.769	0.815	0.735	0.287	0.542	0.74	1.15
